# Source: the supplement of paper PMC10567573
# B1: PLK2 (parent)
# chain: MELLRTITYQPAASTKMCEQALGK
# Variants of: B1
# Assay: protein stability index of a GFP-peptide fusion (GPS, HEK-293T) (PSI 1-6); higher = more stable
# Conditions: c terminus: a fixed tail appended
# 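Note: lentivirally expressed fusions sorted by FACS into six bins by GFP to DsRed ratio, PSI derived from sequencing read proportions per bin multiplied by bin number.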
row,Variant,protein stability index
1,MELLRTITYQPAASIKMCEQALGK [T15I],2.39
2,MELLRTITYQPAASKKMCEQALGK [T15K],1.68
3,MELLRTITYQPAASLKMCEQALGK [T15L],2.23
4,MELLRTITYQPAASAKMCEQALGK [T15A],2.17
5,MELLRTITYQPAASEKMCEQALGK [T15E],2.53
6,MELLRTITYQPAASHKMCEQALGK [T15H],3.23
7,MELLRTITYQPAASGKMCEQALGK [T15G],2.53
8,MELLRTITYQPAASFKMCEQALGK [T15F],1.79
9,MELLRTITYQPAASDKMCEQALGK [T15D],2.95
10,MELLRTITYQPAESTKMCEQALGK [A13E],2.09
11,MELLRTITYQPAPSTKMCEQALGK [A13P],1.74
12,MELLRTITYQPAISTKMCEQALGK [A13I],1.82
13,MELLRTITYQPACSTKMCEQALGK [A13C],3.34
14,MELLRTITYQPAFSTKMCEQALGK [A13F],2.33
15,MELLRTITYQPAKSTKMCEQALGK [A13K],2.61
16,MELLRTITYQPAWSTKMCEQALGK [A13W],1.82
17,MELLRTITYQPADSTKMCEQALGK [A13D],2.51
18,MELLRTITYQPALSTKMCEQALGK [A13L],2.43
19,MELLRTITYQPAYSTKMCEQALGK [A13Y],2.42
20,MELLRTITYQPAQSTKMCEQALGK [A13Q],3.13
21,MELLRTITYQPAHSTKMCEQALGK [A13H],2.36
22,MELLRTITYQPARSTKMCEQALGK [A13R],2.39
23,MELLRTITYQPASSTKMCEQALGK [A13S],3.29
24,MELLRTITYQPAGSTKMCEQALGK [A13G],2.97

row,Variant,protein stability index
1,MELLRTITYQPAMSTKMCEQALGK [A13M],2.88
2,MELLRTITYQPATSTKMCEQALGK [A13T],1.15
3,MELLRTITYQPANSTKMCEQALGK [A13N],2.54
4,MELLRTITYQPAVSTKMCEQALGK [A13V],1.96
5,MELLRFITYQPAASTKMCEQALGK [T6F],1.68
6,MELLRKITYQPAASTKMCEQALGK [T6K],2.19
7,MELLRRITYQPAASTKMCEQALGK [T6R],2.04
8,MELLRCITYQPAASTKMCEQALGK [T6C],1.92
9,MELLRPITYQPAASTKMCEQALGK [T6P],4.1
10,MELLRQITYQPAASTKMCEQALGK [T6Q],1.93
11,MELLRDITYQPAASTKMCEQALGK [T6D],3.2
12,MELLRSITYQPAASTKMCEQALGK [T6S],1.64
13,MELLRWITYQPAASTKMCEQALGK [T6W],1.99
14,MELLRNITYQPAASTKMCEQALGK [T6N],2.81
15,MELLRMITYQPAASTKMCEQALGK [T6M],1.73
16,MELLRLITYQPAASTKMCEQALGK [T6L],1.69
17,MELLRIITYQPAASTKMCEQALGK [T6I],2.65
18,MELLRGITYQPAASTKMCEQALGK [T6G],3.05
19,MELLRVITYQPAASTKMCEQALGK [T6V],2.55
20,MELLRAITYQPAASTKMCEQALGK [T6A],1.93
21,MELLRHITYQPAASTKMCEQALGK [T6H],2.2
22,MELLRYITYQPAASTKMCEQALGK [T6Y],1.6
23,MELLREITYQPAASTKMCEQALGK [T6E],3.17
24,MELLRTITDQPAASTKMCEQALGK [Y9D],2

row,Variant,protein stability index
1,MELLRTITCQPAASTKMCEQALGK [Y9C],2.38
2,MELLRTITEQPAASTKMCEQALGK [Y9E],2.05
3,MELLRTITRQPAASTKMCEQALGK [Y9R],2.19
4,MELLRTITKQPAASTKMCEQALGK [Y9K],1.64
5,MELLRTITQQPAASTKMCEQALGK [Y9Q],2.01
6,MELLRTITHQPAASTKMCEQALGK [Y9H],2.1
7,MELLRTITTQPAASTKMCEQALGK [Y9T],2.29
8,MELLRTITVQPAASTKMCEQALGK [Y9V],2.11
9,MELLRTITAQPAASTKMCEQALGK [Y9A],2.52
10,MELLRTITLQPAASTKMCEQALGK [Y9L],1.73
11,MELLRTITPQPAASTKMCEQALGK [Y9P],2.04
12,MELLRTITSQPAASTKMCEQALGK [Y9S],3.53
13,MELLRTITFQPAASTKMCEQALGK [Y9F],2.05
14,MELLRTITNQPAASTKMCEQALGK [Y9N],2.16
15,MELLRTITGQPAASTKMCEQALGK [Y9G],2.46
16,MELLRTITMQPAASTKMCEQALGK [Y9M],1.89
17,MELLRTITWQPAASTKMCEQALGK [Y9W],1.45
18,MELLRTITIQPAASTKMCEQALGK [Y9I],2.34
19,MELLLTITYQPAASTKMCEQALGK [R5L],3.55
20,MELLNTITYQPAASTKMCEQALGK [R5N],3.79
21,MELLPTITYQPAASTKMCEQALGK [R5P],3.83
22,MELLTTITYQPAASTKMCEQALGK [R5T],2.47
23,MELLVTITYQPAASTKMCEQALGK [R5V],4.09
24,MELLQTITYQPAASTKMCEQALGK [R5Q],3.26

row,Variant,protein stability index
1,MELLSTITYQPAASTKMCEQALGK [R5S],2.71
2,MELLYTITYQPAASTKMCEQALGK [R5Y],1.4
3,MELLMTITYQPAASTKMCEQALGK [R5M],2.36
4,MELLWTITYQPAASTKMCEQALGK [R5W],2.88
5,MELLRTITYWPAASTKMCEQALGK [Q10W],2.6
6,MELLRTITYVPAASTKMCEQALGK [Q10V],4.15
7,MELLRTITYAPAASTKMCEQALGK [Q10A],2.79
8,MELLRTITYDPAASTKMCEQALGK [Q10D],2.11
9,MELLRTITYHPAASTKMCEQALGK [Q10H],1.81
10,MELLRTITYRPAASTKMCEQALGK [Q10R],2.97
11,MELLRTITYLPAASTKMCEQALGK [Q10L],2.49
12,MELLRTITYYPAASTKMCEQALGK [Q10Y],3.24
13,MELLRTITYEPAASTKMCEQALGK [Q10E],2.5
14,MELLRTITYMPAASTKMCEQALGK [Q10M],1.99
15,MELLRTITYSPAASTKMCEQALGK [Q10S],2.54
16,MELLRTITYPPAASTKMCEQALGK [Q10P],2.83
17,MELLRTITYTPAASTKMCEQALGK [Q10T],2.12
18,MELLRTITYIPAASTKMCEQALGK [Q10I],2.81
19,MELLRTITYCPAASTKMCEQALGK [Q10C],1.28
20,MELLRTITYNPAASTKMCEQALGK [Q10N],3.54
21,MELLRTITYGPAASTKMCEQALGK [Q10G],3.21
22,MELLRTITYKPAASTKMCEQALGK [Q10K],2.78
